In the nanobody polyreactivity screen of Harvey et al. (2022):

Assay: yeast display, Sf9 membrane polyspecificity reagent, FACS + sequencing; frameworks hold sequencing errors
Method in brief: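 Nanobodies from a synthetic yeast display library (Saccharomyces cerevisiae BJ5465), induced 36–48 hours with galactose, were stained 1 hour at 4 °C with 10% biotinylated, detergent-solubilized Sf9 membrane reagent, enriched on streptavidin microbeads, then FACS-sorted. Anti-HA (expression) and streptavidin (reagent binding) fluorescence set low and high (top ~1%) gates. Polyreactivity labels come from the gate of origin. Genes were colony-PCR amplified, MiSeq 2 × 250 sequenced and filtered by CDR length.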

Row | Sequence | polyreactivity (PSR sort gate)
1 | QVQLVESGGGLVQAGGSLRLSCAASGRTFSKYVMGWYRQAPGKERELVATITSGGSTYYADSVKGRFTISRDNAKNTVYLQMNSLKPEDTAVYYCAARIWYYNYWGQGTQVTVSS | high polyreactivity
2 | QVQLVESGGGLVQAGGSLRLSCAASGRTFSLNAMGWYRPAPGKEREFVAAISSTGGSTYYADSVKGRFTISRDNAKNTVYLQMNSLKPEDTAVYYCAKRSVYRTAQGRYSVAYDYWGQGTQVTVSS | high polyreactivity
3 | QVQLVESGGGLVQAGGSLRLSCAASGRTFSNYAMGGYRQAPGKERELVAAISERGGSTYYADSVKGRFTISRDNPKNSVFVQLNSLKPEDTAVYDCNALFRLRAYAEMDYWGQGTQVTVSS | high polyreactivity
4 | QVQLVESGGGLVQAGGSLRLSCAASGRTFSNYAMGWYRQAPGKERELVAAIRSGVRTYYADSVKGRFTISRDNAKNTVYLQMNSLKPEDTAVYYCAVATGLLYKSHGYWGQGTQVTVSS | low polyreactivity
5 | QVQLVESGGGLVQAGGSLRLSCAASGRTFSNYVMGWSRQAPGKERELVAAITYSGGSTYYADSVKGRFTISRDNAKYTVYLQMNSLKPEDTAVYYCARRWGGSGYYYWGQGTQVTVSS | high polyreactivity
6 | QVQLVESGGGLVQAGGSLRLSCAASGRTFSPYAMGWYRQAPGKERELVAAITSRGASTYYADSVKGRFTISRDNAKNTVYLQMNSLKPEDTAVYYWNSGRTYRRLGDYWGQGTQVTVSS | high polyreactivity
7 | QVQLVESGGGLVQAGGSLRLSCAASGRTFSQYAMGWYRQAPGKERELVAAISWSGDSTYYADSVKGRFTISRDNAKNTVYLQMNSLKPEDTAVYDCAADRRVETPRYDYWGQGTQVTVSS | low polyreactivity
8 | QVQLVESGGGLVQAGGSLRLSCAASGRTFSRNAKGWYRQAPGKERELVAAISWSGGSTYYADSVKGRFTISRDNAKNTVYLQMNSLKPEDTAVYYCAKVLGRTYNYWGQGTQVTVSS | high polyreactivity
9 | QVQLVESGGGLVQAGGSLRLSCAASGRTFSRNAMAWYRQAPGKERELVAAISRRGVSTYYADSVKGRFTISRDNAKNTVYLQMNSLKPDDTAVFYCNTRGTYRYDYWGQGTQVTVSS | low polyreactivity
10 | QVQLVESGGGLVQAGGSLRLSCAASGRTFSRNAMGWYRQAPGKERELVAAITKGGGSTYYADSVKGRFTISRDNAKNTVYLQMNSLKPEDTAVYYCAAYKPSTRRYDYWGQGTQVTVSS | high polyreactivity
11 | QVQLVESGGGLVQAGGSLRLSCAASGRTFSRNAMGWYRQAPGKERELVASISRSGASTYYADSVKGRFTISRDNAKNTVYLQMNSLKPEDTAVYYCNADVYSTYYNYNYWVQGTQVTVSS | high polyreactivity
12 | QVQLVESGGGLVQAGGSLRLSCAASGRTFSRNAMGWYRQAPGNERELLAASSWSGGRTYYADSVKGRFTISRDNAKNTFYLQMNSLKPEDTAVYYCAAGGGTGGSRYDSWGQGTQVTVSS | high polyreactivity
13 | QVQLVESGGGLVQAGGSLRLSCAASGRTFSRYAIGWYRQAPGKERDLVAAITRTGGSTYYADSVKGRFTISRDNAKNTVYLQMNSLKPEDTAVYYCAAAYPGVWYDYNYWGQGTQVTVSS | high polyreactivity
14 | QVQLVESGGGLVQAGGSLRLSCAASGRTFSRYAMGWYRQAPGKERELVAAIRGNSGNTYYADSVKGRFTISRDNAKNTVYLQMNSLKPEDTAVYYCAKPFNIWGQGTQVTVSS | high polyreactivity
15 | QVQLVESGGGLVQAGGSLRLSCAASGRTFSRYTMGWYRQAPGKERELVAAISVNGGTTHYADSVKGRFTISRDNAKNTVYLQMNSLKPEDTAVYYCNARRRVGKYKYDYWGQGTQVTVSS | high polyreactivity
16 | QVQLVESGGGLVQAGGSLRLSCAASGRTFSSNAKGWYRQAPGKERELVASISFRGGRTYYADSVKGRFTISRDNAKNTVYLQMNSLKPEDTAVYYCVSGTIRTGYGYWGQGTQVTVSS | high polyreactivity
17 | QVQLVESGGGLVQAGGSLRLSCAASGRTFSSYAMGWYRQAPGKERELVAAITRTGGRTYYAYSVKGRFTISRDNAKNSVYLQMNSLKPEDTAVYFCAALYIYRTFAALSRYDYWGQGTQVTVSS | high polyreactivity
18 | QVQLVESGGGLVQAGGSLRLSCAASGRTFSSYTMGWYRQAPGKERELVASITNNGGSTYYADSVKGRFTISRDNAKNTVYLQMNSLKPEDTAVYYCAVDSRGKLGISGEYGYWGQGTQVTVSS | low polyreactivity
19 | QVQLVESGGGLVQAGGSLRLSCAASGRTFSVNAMGWYRKAPGKERELVAAISWSTGSTYYADSVKGRFTISRDNAKNTVSLQMNSLKPEDTAVYYCAKLYEYRRSRYRTYGYWGQGTQVTVSS | high polyreactivity
20 | QVQLVESGGGLVQAGGSLRLSCAASGRTFSVNAMGWYRPAPGKERELVAAISSGGGTNYADSVKGRFTISRDNAKNTVYLQMNSLKPEDTAVYYCAARTFGYPSHRQEMEYWGQGTQVTVSS | low polyreactivity
21 | QVQLVESGGGLVQAGGSLRLSCAASGRTFSVNAMGWYRQAPGKERELVAAITSGASTNYADSVKGRFTISRDNAKNTVYLQMNSLKPEDTAVYYCAADYLYHQTSRGKYYSWGQGTQVTVSS | low polyreactivity
22 | QVQLVESGGGLVQAGGSLRLSCAASGRTFSVNAMGWYRQAPGKEREMVAAITSGASTNYADSVKGRFTISRDNAKNTVYLQMNSLKPEDTAVYYCAADATYGHVPAEYDYWGQGTQVTVSS | low polyreactivity

Row | Sequence | polyreactivity (PSR sort gate)
23 | QVQLVESGGGLVQAGGSLRLSCAASGRTFSVNAMGWYRQAPGNERELVAARRTGDSTNYADSVKGRFTFSRDNAKYTVYLPMNSLKPEDTSVDYCAADVWGSSAQRGWRKYYYWGQGTQVTVSS | high polyreactivity
24 | QVQLVESGGGLVQAGGSLRLSCAASGRTFSVYAMVWYRQAPGKERELVADITRRGGSTTYADSVKGRFTISRDNAKNTVDLQMNSLKPEDTAVYYFNADGKAGGDYDYWGQGTQVTVSS | low polyreactivity
25 | QVQLVESGGGLVQAGGSLRLSCAASGRTFSVYTMGWYRQAPGKERELVASINWSGGRTYYADSVKGRFTISRDNAKNSVYLQMNSLKPEDTAVYYCAATGWRTLYDYWGQGTQVTVSS | high polyreactivity
26 | QVQLVESGGGLVQAGGSLRLSCAASGRTFSYNAMGWYRQAPGKERELVAGISSRGGSTYYADSVKGRFTISRDNAKNTVYLQMNSLKPEDTAVYYCNALGRGKDSYSGVDYWGQGTQVTVSS | high polyreactivity
27 | QVQLVESGGGLVQAGGSLRLSCAASGRTFSYNTMGCYRQAPGKERELVARITWGGGSTNYADSVKGRFTISRDNAKNTVYLQMNSLKPEDTAVYYCAREYSSVYWVRHLFYYWGQGTQVTVSS | low polyreactivity
28 | QVQLVESGGGLVQAGGSLRLSCAASGRTFSYNTMGWYRQAPGKVSELVAAISTGVSTYYADSVKGRFTISRDNAKNTVYLQMNSLKPEDTEVYYCARGGRPRWYPPHNYWGQGTQLTVSS | low polyreactivity
29 | QVQLVESGGGLVQAGGSLRLSCAASGRTFSYYAMGCYRQAPGKERELVAAISQRGGSTYYADSVKGRFTISRDNAKNTVYLQMNSLKPEDTAVYYCAVLVSRYRYRVLDDYWGQGTQVTVSS | high polyreactivity
30 | QVQLVESGGGLVQAGGSLRLSCAASGRTFSYYAMGWYRQAPGKERELVAAISSGGSTNYADSVKGRFTISRDNAKNTVYLQMNSLKPEDTAVYYCATSSIWGSGRVRWVTYYYWGQGTQVTVSS | low polyreactivity
31 | QVQLVESGGGLVQAGGSLRLSCAASGRTFSYYAMGWYRQAPGKERELVAGISWRGTSTYADSVKGRFTISRDNAKNTVYLQMNSLKPEDTAVYYWNAEVTGHYSYHKFDYWGQGTQVTVSS | low polyreactivity
32 | QVQLVESGGGLVQAGGSLRLSCAASGRTFSYYAMGWYRQAPGKERELVAVITSSGGSTSYADSVKGRFTISRDNAKNTVYLQMNSLKPEDTAVYYCAADPLAVSWAYYLFGVDYWGQGTQVTVSS | high polyreactivity
33 | QVQLVESGGGLVQAGGSLRLSCAASGRTFSYYGMGWYRQAPGKERELVAAITNSVGRTYYADSVKGRFTISRDNEKNTVYLHMNSLKPEDTAVYYCKKYGRYYYWGQGTQVTVSS | low polyreactivity
34 | QVQLVESGGGLVQAGGSLRLSCAASGRTFTAYAMGWYRQAPGKERELVAAISVGGGSTYYADSVKGRFTISRDNAKNTVYLQMNSLKPEDTAVYYCAADRSYYLDGYDYWGQGTQVTVSS | low polyreactivity
35 | QVQLVESGGGLVQAGGSLRLSCAASGRTFTFYTMGWYRQAPGKERELVAAITRSGGGTYYADSVKGRFTISRDNAKNTVYLQMNSLKPEDTAVYYCAAYNRNAFHWGQGTQVTVSS | high polyreactivity
36 | QVQLVESGGGLVQAGGSLRLSCAASGRTFTGNALGWYRQAPGKERELVAAISQRGGRTNYADSVKGRFTISRDNAKNTVYLQMNSLKPEDTAVYYCAADLGYYYFFGSNYAYDYWGQGTQVNVSS | low polyreactivity
37 | QVQLVESGGGLVQAGGSLRLSCAASGRTFTGYAMGWYRQAPGKEREFVAAITQRGGSTYYADSVKGRFTISRDTAKNTVYLQMNSLKPEDTAVYYCAARRRYKMDYWGQGTQVTVSS | high polyreactivity
38 | QVQLVESGGGLVQAGGSLRLSCAASGRTFTHYDMGWYRQAPGKERELVAAISSGCGTYYADSVKGRFTISRDNAKNTVYLQMNSLKPEDTAVYYCNADYTNYHDPFRTYGYWGQGTQVTVSS | low polyreactivity
39 | QVQLVESGGGLVQAGGSLRLSCAASGRTFTINGMGWYRQAPGKERELVAGINWRDGRTYYADSVKGRFTISRDNAKNTVYLQMNSLKPEDTAVYYCNVEVAESFDYWVQGTQVTVSS | low polyreactivity
40 | QVQLVESGGGLVQAGGSLRLSCAASGRTFTIYAMGWYRQAPGKEREFVASITGSDGSTYYADSVKGRFTISRDNAKNTVYLQMNSLKPEDTAVYYCAAKRYVYPSYRFDYWGQGTQVTVSS | low polyreactivity
41 | QVQLVESGGGLVQAGGSLRLSCAASGRTFTIYTMGWYRQAPGKERELVAAISRGGRTNYADSVKGRFTISRDNAKNTVYLQMNSLKPEDTAVYYCNADGSRYYTAYRLRLPYDYWGQGTQVTVSS | high polyreactivity
42 | QVQLVESGGGLVQAGGSLRLSCAASGRTFTLYAMGWYRQAPGKERELVASITTGGRTYYADSVKGRFTISRDNAKNTVYLKMNSLKPEDTAVYYCNADRVYAWYRTYEYWGQGTEVTVSS | high polyreactivity
43 | QVQLVESGGGLVQAGGSLRLSCAASGRTFTPYAMGWYRQAPGKERELVAAINSDGSTNYADSVKGRFTISRDNAKNTVYLQMNSLKPEDTAVYYCAAGYSLEGDYWGQGTQVTVSS | low polyreactivity
